For eleven sequences, protein production results are on record in a protein production outcome set (Wang et al. 2014).

The nature of this data set: label from the status in PepcDB records.
In the case of “MILQSTSLFCKYINNCRYINREIVATLKASPQGLARIKQARSDRGWSVDDFRWLELASEILGVCWQENGVLAAGISEGTWKRFLAGKQAINAEAFKAYCQVLGLNWEEVQEGGRTKERKDTGTSRQEKFLSSSHPHTDWGEAPDVSIFYGRSEELDTVKRWVTQENCRLITLLGMGGIGKTTLSVKLAQEIINSEKIYLSQSPEYIIWRSLRNAPPVEDILAELIQFLSGQQETNLSNHLQGRISLLLKNLRSSRCLIILDNAESILQAGDRNGRYRAGCEGYGQFLQCIAETSHQSCLILTSREKPQGLAKYEGDSLPVRSLPLTGLQEQEGRELFNVKGKFAASCDQWQVLISRYGGNPLALKIVASSIRDFFDGDVSQFLEVSQQGTFIFDDIRDLLDQQFQRLTTLEREIMYWLAINREPVTLAELQADFVANIPPRELLESLSSLQRRSLIEKSAGGFTQQPVVMEYVSNHLIEQVCEEMREWGLVRSRGAEEQRSRGEKIHTQYKLNAALPLTALSTPLFTTHALIKAQAKDYVRESQISLILQPLINQLITEFGSLENISNCLVHILSRLRGKSPQETGYAGGNVLNLLHHAQVDLSGYDFSGLTVWQAYLQGVNLHDVDFANSDLSCCVFTETLGNILSAAFSPEGQLLATCDTDCHVRVWEVKSGKLLLICRGHSNWVRFVVFSPDGEILASCGADENVKLWSVRDGVCIKTLTGHEHEVFSVAFHPDGETLASASGDKTIKLWDIQDGTCLQTLTGHTDWVRCVAFSPDGNTLASSAADHTIKLWDVSQGKCLRTLKSHTGWVRSVAFSADGQTLASGSGDRTIKIWNYHTGECLKTYIGHTNSVYSIAYSPDSKILVSGSGDRTIKLWDCQTHICIKTLHGHTNEVCSVAFSPDGQTLACVSLDQSVRLWNCRTGQCLKAWYGNTDWALPVAFSPDRQILASGSNDKTVKLWDWQTGKYISSLEGHTDFIYGIAFSPDSQTLASASTDSSVRLWNISTGQCFQILLEHTDWVYAVVFHPQGKIIATGSADCTVKLWNISTGQCLKTLSEHSDKILGMAWSPDGQLLASASADQSVRLWDCCTGRCVGILRGHSNRVYSAIFSPNGEIIATCSTDQTVKIWDWQQGKCLKTLTGHTNWVFDIAFSPDGKILASASHDQTVRIWDVNTGKCHHICIGHTHLVSSVAFSPDGEVVASGSQDQTVRIWNVKTGECLQILRAKRLYEGMNITGVTGLTKATIFTLQALGALR”, the protein production result is given as “failed”.

With “MLYFDHWTKVPADIWRWPNFSPEEIACRSTGKVGIDPQAMDKLQALRDRLGAPLMLNSAYRSPEHNRAEGGAPASEHLKARAFDVSMINHDPAEFEAAARAVGFTGFGFYRRNNFIHVDIGPAREWGNRWFDRVPHGAPLRPAPRFSPPPKLRPETLAEDRGARGTALGAGGGVALIGALGNVVGDLNPTAQAIAFGGAIVLAASLAYLIRDKIREWA”, the protein production result is “failed”.

Consider “MSHAHKKHKENAPKSLNFYVITISTSRYEKLLKKEPIVDESGDIIKQLLIENGHKIIGYSLVPDDKIKILKAFTDALSIDEVDVIISTGGTGYSPTDITVETIRKLFDREIEGFSDVFRLVSFNDPEVKAAAYLTKASAGIIGKKIVYLLPGSPDAVKLALKELILPEVGHLVYLVRS”, for which the protein production result was “not failed”.

In the case of “MNPDFLGALLIGLVGAGHCMGMCGGIASLLSLGSSSSKSSPTIPLFYNLGRLSSYALIGALVGGAISGLSELSGLAQSLAWLRFVAAIFMILVALYIAKWWQGLLIVEKMGQHLWKFISPAGKSLLPLKKPIHALPFGFVWGWLPCGLVYSALTWSAVSGSAVNGGLIMLAFGLGTLPSMLAVGYGASHFQKLQKSLIFRNISALILIVYGAYTAAGAMQMLGFI”, the protein production result was “failed”.

As to “MNPPSGPRVPPSPTQEPSCMATPAPPSWWDSSQSSISSLGRLPSISPTAPGTWAAAWVPLPTVDVPDHAHYTLGTVILLVGLTGMLGNLTVIYTFCRSRSLRTPANMFIINLAVSDFLMSFTQAPVFFTSSLYKQWLFGETGCEFYAFCGALFGISSMITLTAIALDRYLVITRPLATFGVASKRRAAFVLLGVWLYALAWSLPPFFGWSAYVPEGLLTSCSWDYMSFTPAVRAYTMLLCCFVFFLPLLIIIYCYIFIFRAIRETGRALQTFGACKGNGESLWQRQRLQSECKMAKIMLLVILLFVLSWAPYSAVALVAFAGYAHVLTPYMSSVPAVIAKASAIHNPIIYAITHPKYRVAIAQHLPCLGVLLGVSRRHSRPYPSYRSTHRSTLTSHTSNLSWISIRRRQESLGSESEVGWTHMEAAAVWGAAQQANGRSLYGQGLEDLEAKAPPRPQGHEAETPGKTKGLIPSQDPRM”, the protein production result was “failed”.

On to “MAALSGVFVWDEERIQEEELQRSINEMKRLEEMSNIFQSSGVENYPPEPKSPAGGNEKSKDKEEPWEMVMDKKHFKLWRRPITGTHLYQYRVFGTYTDVTPRQFFNVQLDTEYRKKWDALVIKLEVIERDAVSGSEVLHWVTHFPYPMYSRDYVYVRRYSVDQENNVMVLVSRAVEHPSVPESPEFVRVRSYESQMVIRPHKSFDENGFDYLLTYSDNPQTVFPRYCVSWMVSSGMPDFLEKLHMATLKAKNMEIKVKDYISAKPLEMSSEAKATAPSPERKNEGSCGPARIEYA”, for which the protein production entry is “failed”.

“MAHGMPTQGKVTISVDEYSSNPTQALTHYNINQSRFQPPHVHMVDPISYDTPKPGGHTRFVCVSDTHSRTDGIQMPYGDVLLHTGDFTELGLPSEVKKFNDWLGSLPYEFKVVIAGNHELTFDKDFMTELVKQDYYRFPSVSKLKPKDFDNVQSLLTNCVYLQDSDVTVKGFRIYGTPWTPWFNGWGFNLPRGQSLLDKWNLIPEGVDILMTHGPPLGFRDWVPKELQRVGCVELLNTVQRRVRPKLHVFGGIHEGYGIMTDGYTTFINASTCTVSFQPTNPPIVFDLPNPTSS”: the protein production entry was “failed”.

Consider “MFKASHVLQGEDQTRSAAEFFPVISANYAVDEEAYLGELLQLADPGPDGIEAIRRNARALIETVRSRDNAVDTLDALLRQYSLDTQEGLMLMCLAEALLRVPDAATADALIRDKLSAADWQRHLGQSDNVLVNFAAWGLVMTGKVVNIDERTDGRAPSVISRLVQRSGEPVIRAAMNQAMKLMGKQFVLGRTISEALKNGRPCREQGYTYSFDMLGEAALTAADAEKYMADYRQAIDTVGAEPQVGPGPRPSISIKLSALHPRYEVAQRERVLSELFANVLELAVRARKLNVGITIDAEEADRLELSLELYEKLMRDPAIAGWGEFGLVIQAYSKRCLPVLVWLTLLGRELGARIPLRLVKGAYWDSEIKQCQVQGADGYPVYTRKEGTDTSYLACARYLLSEHTRGVIYPQFASHNAHTVTAILALADEARAAGGEERDFEFQRLHGMGDALYDTVIEKYRRNVRIYAPVGAHKDLLPYLVRRLLENGANSSFVHKLVDPRVPVETLIQHPVTQLRQFKTLANDRIPLPQAIFGAGRKNSQGINMNIQNQWNELELAYKPHLTRQWQAAPIVNGEKLSGPAHEVRCPYDLERLVGSVQYASAEQAGKALDVLQAAWPRWSATPVDERAGILERLADLLEAQRGELMALCTLEAGKSLQDGIDEIREAVDFCRYYAQQARQRLVREELRGPTGERNELFYEGRGIFACVSPWNFPLAIFLGQISAALVAGNTVLAKPAEQTSLIAARTVELMFEAGLPKDVIALLPGDGATLGGVFCRDARVAGVAFTGSTDTARIINRQLAEKPGAIATLIAETGGQNAMIVDSTALPEQVIKDAVQSAFTSAGQRCSALRVMYVQQDIAERVIELLKGAMAELKVGPTEVRVSDVGPVIDAEAKAGLEQHIAALKAAGKLIAETKVPGNLNGHFVAPVAFEISGIDELKKENFGPVLHVVRYAAQDLEKVVQAINATGFGLTMGVHSRNEETARRIEELARVGNLYINRNQIGAVVGVQPFGGHGLSGTGPKAGGPNYLLRFVSERTTSVNTTAVGGNA”, for which the protein production result was “failed”.

Regarding “NNNSKINLFCVPSAGSSASIFSAWDKTSAENLKVIALEYPGHGRKIQQSLSHDPDFLAHQFSLEILAYGNTPYVLFGHSVGASLIWKIEEKLKLLHADHNLILKIVSARPSPLFQNLIHNYSHLTDEQMIKELRLYNNFPDEILNNASALNFFLPIIKNDFILSDNMLKKPIFKSSVPLMSVYGEADPYIKNHNIMESWSTYTNKWLGAHQFSGDHFYFLDTTILQKMLHLIQEKIY”, the protein production entry is reported as “failed”.

In the case of “MLHTEKVEYVNQAHEDITGIARDKSIGTNLRDLTFFRQHNALAEQTLAKIFRGDQAKGEVQFSRTDGSRYWLKYIVSQFITDRGNHYALVSGEENSDEHLEHHHHHH”, the protein production result is reported as “failed”.

In the case of “MGKGVAFFSGGKDGLYALYLAEEMGIEVPYLLVLKTSIGLSPHWENLDALKTLAKVMEREILTFDMRRGSKALAEFISSLDVDYLIAGDVYLEDHILWVKSLAEEANVKPLEPLWGRNTRKLAEEMLREGFNWAIIAVDKRKLGKEWLGYTFRSIEDLENFLRANPNVDPLGEVGEFHTVVLNSPLFALNFELKVESIEEDERYWWLRFELREVEKWNLNS”, the protein production entry is “failed”.
